Measurements reported in paper doi:10.1101/2021.05.20.444958.

Tested on: His6-DnaA (Escherichia coli K-12?)
Assay: EMSA

Q: For iraD upstream region, 672 bp, which Kd is on record?
A: Its Kd is 42 nM.
